# From patent publication US20250326860A1 (ADAGENE PTE, published 2025)
# Numbering of substitutions follows the chain as printed. Values joined by “and” are separate entries in the source; they are usually repeats but may differ in a detail not shown here. Equal values may be shown once.
# T1: human CD20 on cells (human B cells; Raji, SU-DHL-8, SU-DHL-4, A3KAW, NAMALWA) (human, UniProt P11836 1-297)
# T1 construct: whole, on cells
# T1 sequence (looked up): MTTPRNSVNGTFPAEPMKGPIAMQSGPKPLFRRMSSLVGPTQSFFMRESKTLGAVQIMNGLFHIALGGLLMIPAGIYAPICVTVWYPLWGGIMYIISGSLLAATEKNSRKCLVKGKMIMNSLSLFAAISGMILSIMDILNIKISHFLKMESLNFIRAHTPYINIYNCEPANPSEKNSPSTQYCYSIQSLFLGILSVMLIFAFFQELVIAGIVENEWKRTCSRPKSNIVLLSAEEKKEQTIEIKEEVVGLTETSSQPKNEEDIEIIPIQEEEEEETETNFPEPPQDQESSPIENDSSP
# T2: cynomolgus monkey CD20 on B cells (cynomolgus monkey, UniProt M4ZHZ6 1-297)
# T2 construct: whole, on cells
# T2 sequence: T1 sequence (looked up) with S25P, F31L, T51A, A157V, K217R, N226S, I227V, T239V
# B1: TAC2392 (bispecific antibody)
# light: QIVLTQSPSSLSASVGDRVTITCRASSSVSYIHWFQQKPGKSPKPLIYATSNLASGVPVRFSGSGSGTDYTLTISSLQPEDFATYYCQQWTSNPPTFGGGTKVEIKRTVAAPSVFIFPPSDEQLKSGTASVVCLLNNFYPREAKVQWKVDNALQSGNSQESVTEQDSKDSTYSLSSTLTLSKADYEKHKVYACEVTHQGLSSPVTKSFNRGEC
# heavy: QVQLVQSGAEVKKPGASVKVSCKASGYTFTSYNMHWVRQAPGQGLEWMGAIYPGNGDTSYNQKFQGRVTITADKSISTAYMELSSLRSEDTAVYYCARSTYYGGDWYFNVWGAGTLVTVSSASTKGPSVFPLAPSSKSTSGGTAALGCLVKDYFPEPVTVSWNSGALTSGVHTFPAVLQSSGLYSLSSVVTVPSSSLGTQTYICNVNHKPSDTKVDKKVEPKSCDKTHTCPPCPAPPVAGPSVFLFPPKPKDTLMISRTPEVTCVVVDVKHEDPEVKFNWYVDGVEVHNAKTKPREEEYNSTYRVVSVLTVLHQDWLNGKEYKCKVSNKALPAPIEKTISKAKGQPREPQVYTLPPSREEMTKNQVSLTCDVSGFYPSDIAVEWESDGQPENNYKTTPPVLDSDGSFFLYSKLTVDKSRWEQGDVFSCSVMHEALHNHYTQKSLSLSPGK
# chain: not shown
# notes: also called CD20xCD3 bispecific antibody
# B2: TY25023 (bispecific antibody, human IgG1, kappa, N297A)
# light: not shown
# heavy: not shown
# chain: EAVVTQEPSLTVSPGGTVTLTCGSSTGAVTTSNYPNWVQQKPGQAPRGLIGGTNKRAPGTPARFSGSLLGGKAALTLSGAQPEDEAEYYCALWYSDLWVFGGGTKLTVLGGGGSGGGGSGGGGSGGGGSEVQLVESGGGLVQPGGSLRLSCAASGFTFSTYAINWVRQAPGKGLEWVSRIRSKYNNYATYYAESVKDRFTISRDDSKNTLYLQINSLRAEDTAVYYCVRHGNFGTSYVSWFAYWGQGTLVTVSSEPKSSDKTHTCPPCPAPELLGGPSVFLFPPKPKDTLMISRTPEVTCVVVDVSHEDPEVKFNWYVDGVEVHNAKTKPREEQYASTYRVVSVLTVLHQDWLNGKEYKCKVSNKALPAPIEKTISKAKGQPREPQVYTDPPSRDELTKNQVSLTCLVDGFYPSDIAVEWESNGQPENCYKTTPPVLDSDGSFFLYSKLTVDKSRWQQGNVFSCSVMHEALHNHYTQDSLSLSPGK
# notes: also called anti-CD3 variant TY24742
# B3: TY25525 (bispecific antibody, human IgG1, kappa, N297A)
# light: not shown
# heavy: not shown
# chain: B2 chain with E1Q, T60V, D96N, Q142K, T160S, S178G, D197G, T235N, W240Y, F241W
# B4: TY24051 (bispecific antibody)
# light: not shown
# heavy: not shown
# chain: QAVVTQEPSLTVSPGGTVTLTCGSSTGAVTTSNYANWVQQKPGQAPRGLIGGTNKRAPGVPARFSGSLLGGKAALTLSGAQPEDEAEYYCALWYSNLWVFGGGTKLTVLRGGGGSGGGGSGGGGSGGGGSEVQLVESGGGLVQPGGSLRLSCAASGFTFNTYAMNWVRQAPGKGLEWVGRIRSKYNNYATYYADSVKGRFTISRDDSKNTLYLQMNSLRAEDTAVYYCVRHGNFGNSYVSWFAYWGQGTLVTVSSEPKSSDKTHTCPPCPAPELLGGPSVFLFPPKPKDTLMISRTPEVTCVVVDVSHEDPEVKFNWYVDGVEVHNAKTKPREEQYASTYRVVSVLTVLHQDWLNGKEYKCKVSNKALPAPIEKTISKAKGQPREPQVYTDPPSRDELTKNQVSLTCLVDGFYPSDIAVEWESNGQPENCYKTTPPVLDSDGSFFLYSKLTVDKSRWQQGNVFSCSVMHEALHNHYTQDSLSLSPGK
# notes: also called parental HER2xCD3 bispecific antibody; anti-CD3 variant TAC2225
# Key:
# [1] = molecular target: T1, human CD20 on cells (human B cells; …); test: flow cytometry, Raji cells
# Protocol: (§1) Raji, SU-DHL-8, SU-DHL-4, A3KAW and NAMALWA were B-cell lymphoma cell lines with various CD20 expression levels on cell surface. Briefly, the test antibodies were serial diluted and were incubated with the tumor cells on ice. After washing, the cells were subsequently incubated with the APC-labelled anti-human-Fc secondary antibody (BioLegend) on ice. The cells were then washed with PBS prior to analysis by the CytoFLEX flow cytometer (Beckman Coulter). The data was analyzed by FlowJo software.
# [2] = molecular target: T1, human CD20 on cells (human B cells; …); test: flow cytometry, A3KAW cells
# Protocol: as §1
# [3] = molecular target: T1, human CD20 on cells (human B cells; …); test: flow cytometry, human B cells
# Excerpt: (§2) Human and monkey PBMCs were isolated as mentioned above. Human B cells were further isolated from PBMCs using the EasySep™ Human B Cell Isolation Kit (Stem Cell Technologies). Monkey B cells were isolated from PBMCs using the Non-Human B Primate Cell Isolation Kit (Stem Cell Technologies). Purified human or monkey B cells were stained with the testing antibodies as the primary antibody and the APC-labelled anti-human-Fc antibody (BioLegend) as the secondary antibody. After washing, the cells were analyzed on the CytoFLEX flow cytometer (Beckman Coulter) and the data was analyzed by FlowJo software.
# [4] = molecular target: T1, human CD20 on cells (human B cells; …); test: flow cytometry, NAMALWA cells
# Protocol: as §1
# [5] = molecular target: T2, cynomolgus monkey CD20 on B cells; test: flow cytometry, monkey B cells
# Excerpt: as §2
# [6] = molecular target: T1, human CD20 on cells (human B cells; …); test: flow cytometry, SU-DHL-4 cells
# Protocol: as §1
# [7] = molecular target: T1, human CD20 on cells (human B cells; …); test: flow cytometry, SU-DHL-8 cells
# Protocol: as §1
# [8] = molecular target: T3, human CD3 on cells (Jurkat cells, human T cells) (human, UniProt P07766 23-207); test: flow cytometry, human CD3+ T cells
# T3 construct: whole, on cells
# T3 sequence (P07766 23-207): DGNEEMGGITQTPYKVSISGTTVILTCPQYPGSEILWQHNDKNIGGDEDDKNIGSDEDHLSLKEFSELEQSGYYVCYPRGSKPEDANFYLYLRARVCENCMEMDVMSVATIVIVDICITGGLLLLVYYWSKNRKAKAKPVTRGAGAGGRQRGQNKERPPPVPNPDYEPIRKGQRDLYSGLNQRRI
# Excerpt: (§3) Human PBMCs were freshly isolated from the blood of healthy donors by density gradient centrifugation using Histopaque-1077 (Sigma). Human CD3+ T cells were further isolated from PBMCs using the Human T Cell Enrichment Kit (Stem Cell Technologies). Monkey PBMCs were isolated from a naïve cynomolgus monkey by density gradient centrifugation using Histopaque-1077 (Sigma). Monkey CD3+ T cells were isolated from PBMCs using the Pan T Cell Isolation Kit Non-Human Primate (Miltenyi Biotec). Purified human or monkey CD3+ T cells were stained with the testing antibodies as the primary antibody and the APC-labelled anti-human-Fc antibody (BioLegend) as the secondary antibody. After washing, the cells were analyzed on the CytoFLEX flow cytometer (Beckman Coulter) and the data was analyzed by FlowJo software.
# [9] = molecular target: T4, cynomolgus monkey CD3 on T cells (cynomolgus monkey, UniProt Q95LI5 22-198); test: flow cytometry, monkey CD3+ T cells
# T4 construct: whole, on cells
# T4 sequence (Q95LI5 22-198): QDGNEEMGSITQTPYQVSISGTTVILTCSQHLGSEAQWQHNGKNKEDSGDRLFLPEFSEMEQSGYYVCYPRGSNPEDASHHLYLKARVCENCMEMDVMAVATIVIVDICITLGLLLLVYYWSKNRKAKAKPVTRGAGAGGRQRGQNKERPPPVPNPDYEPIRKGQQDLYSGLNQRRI
# Excerpt: as §3
# [10] = molecular target: T3, human CD3 on cells (Jurkat cells, human …); test: flow cytometry, human CD4+ T cells
# Protocol: (§4) Binding of CD20xCD3 bispecific or SAFE-bispecific antibodies to purified human CD3+ T cells was determined by flow cytometry. Briefly, human or monkey PBMC were freshly purified with Ficoll gradient solution—Histopaque 1077 (Sigma) from a healthy donor and CD3+ T cells were isolated using EasySep™ Human T cell Enrichment Kit (StemCell). Before staining, […] human Fc receptors on CD3+ T cells were blocked with Human Fc Block (BD). Then cells were incubated with fluorescence labeled antibody mixture (APC-Cy7 Mouse Anti-human CD3, PerCP-CyTM5.5 Anti-human CD4 and FITC anti-human CD8) for 15 minutes at 4° C. After washing the cells once with PBS supplemented with 2% FBS, cells were aliquoted to 96-well plates at 2×10⁵ cells per well, and cells were incubated with serial diluted bispecific, SAFE-bispecific or IgG1 isotype control antibodies for 30 minutes at 4° C. After washing the cells twice with PBS supplemented with 2% FBS, cell surface bound antibody was detected by incubating the cells with APC-labeled mouse anti-human IgG Fc secondary antibody for 30 minutes at 4° C. Cells were washed and detected by FACS using Cytoflex (BeckMan) and data was analyzed by FlowJo. The mean fluorescence (MFI) of each antibody binding to human or monkey CD4+ T cells and CD8+ T cell populations were fitted with four-parameter non-linear regression to get EC₅₀ values by GraphPad Prism software.
# [11] = molecular target: T3, human CD3 on cells (Jurkat cells, human …); test: flow cytometry, human CD8+ T cells
# Protocol: as §4
# [12] = molecular target: T4, cynomolgus monkey CD3 on T cells; test: flow cytometry, monkey CD4+ T cells
# Protocol: as §4
# [13] = molecular target: T4, cynomolgus monkey CD3 on T cells; test: flow cytometry, monkey CD8+ T cells
# Protocol: as §4
# [14] = molecular target: T3, human CD3 on cells (Jurkat cells, human …); test: Jurkat cell binding
# [15] = molecular target: T3, human CD3 on cells (Jurkat cells, human …); test: Jurkat cell binding; remark: listed apart in the source
binder,measurement,setting,value
B1,EC50,[1],135 nM
same,Max MFI,[1],22000 MFI
same,EC50,[2],487 nM
same,Max MFI,[2],675000 MFI
same,EC50,[3],12.6 nM
same,max MFI,[3],32300 MFI
same,EC50,[4],592 nM
same,Max MFI,[4],447000 MFI
same,EC50,[5],83.8 nM
same,max MFI,[5],6020 MFI
same,EC50,[6],26.9 nM
same,Max MFI,[6],2.29e+06 MFI
same,EC50,[7],48.6 nM
same,Max MFI,[7],3640 MFI
same,EC50,[8],6.92 nM
same,max MFI,[8],6490 MFI
same,EC50,[9],26.6 nM
same,max MFI,[9],3200 MFI
same,EC50,[10],62.1 nM
same,EC50,[11],37.2 nM
same,EC50,[12],120 nM
same,EC50,[13],58.6 nM
B2,EC50,[14],> 1000 nM and 480 nM
B3,EC50,[15],6.88 nM
B4,EC50,[14],15.3 nM and 10.2 nM
